# Patent US20060015952A1, “Screening assays and methods of tumor treatment” (GENENTECH, INC., priority 2003, published 2006)
# Marks after values point to notes of the source that are not given here.
# T1: porcine, platelet-derived TGF-beta2 (Sus scrofa, UniProt P09858)
# T1 construct: porcine, platelet-derived ^125I-TGF-beta2; purchased R & D Systems; host or cells: porcine platelets
# T1 sequence (P09858 303-414 limits assumed): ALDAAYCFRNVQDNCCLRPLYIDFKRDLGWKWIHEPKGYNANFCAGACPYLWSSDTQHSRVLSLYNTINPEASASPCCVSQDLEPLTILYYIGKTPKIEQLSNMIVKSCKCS
# B1: 2G7: murine anti-TGF-beta monoclonal antibody; VL and VH SEQ ID Nos. 1 and 2 (antibody, listed as Mus musculus, V domains shown)
# VH: QVXLXQSGAELVRPGTSVKVSCKASGYAFTNYLIEWVKQRPGQGLEWIGVNNPGSGGSNYNEKFKGKATLTADKSSSTAYMQLSSLTSDDSAVYFCARSGGFYFDYWGQGTTQSPSPQPKRRAH
# VL: DIMMTQSPSSLAVSAGEKVTMSCKSSQSVLYSSNQKNYLAWYQQKPGQSPKLLIYWASTRESGVPDRFTGSGSGTDFTLTISSVQAEDLAVYYCHQYLSSDTFGGGTKLEIKRTVA
# modifications: not fully specified; Xaa 3, 5 Unknown amino acid
# Assays:
# [1] = test system: B16-BL6; assay: Mouse model of metastatic melanoma, B16-BL6 subline; type: in vivo; conditions: about 30 mg/kg
# Procedure: (§1) This study used B16-F10 and B16-BL6 metastatic melanoma sublines, subcutaneously injected into immunocompetent mice, to test the effect of anti-TGF-β antibodies (2G7) on primary and secondary melanoma. In particular, C57Black 6 mice were injected subcutaneously with 500,000 tumor cells. The primary tumor developed was removed at day 14, and the mice were sacrificed around day 28. The anti-TGF-β antibody concentration was approximately 30 mg/kg. The B16-F10 subline is known to be able to colonize bone if introduced into the bone by direct injection (not as a result of subcutaneous injection). The B16-BL6 subline is metastatic to the lung.
# [2] = biological target: T2, TGF-beta1 (Homo sapiens, UniProt P01137); assay: Affinity determination, solid-phase radioimmunoassay / competitive inhibition, Scatchard analysis; type: binding; conditions: competitive inhibition assay
# T2 construct: made in house
# T2 sequence (P01137 279-390 limits assumed): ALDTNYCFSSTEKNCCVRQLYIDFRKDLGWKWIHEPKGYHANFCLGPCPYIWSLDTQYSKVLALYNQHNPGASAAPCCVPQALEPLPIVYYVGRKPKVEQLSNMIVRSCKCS
# Procedure: The solid-phase radioimmunoassay procedure described by Mariani et al, J. Immunol. Methods, 71: 43 (1984) was used to determine the affinities of the TGF-beta-specific monoclonal antibodies. Briefly, purified anti-TGF-beta monoclonal antibodies were coated on IMMUNLON™ 2 “REMOVAWELL”™ strips in pH 9.6 carbonate buffer for 18 hours at 4° C. The wells were washed and blocked as described above. 40,000 CPM/well of either ^125I-rTGF-beta1 or porcine ^125I-TGF-beta2 (R & D Systems), in 50 μl PBSG, was added to 2-fold serial dilutions of non-labeled rTGF-beta1 or porcine TGF-beta2 ranging from 2500 to 9.7 ng/well, in 50 μl PBSG. The resulting mixture was incubated for 18 hours at 4° C. The wells were washed and counted as described above and the affinity constants determined by Scatchard analysis (Munson and Pollard, Anal. Biochem., 107: 220 (1980)), which yields similar results as the non-linear regression analysis of Antoni and Mariani, J. Immunol. Meth., 83: 61 (1985).
# [3] = biological target: rTGF-beta1 (Homo sapiens, UniProt P01137); assay: Immunoprecipitation of 125I-rTGF-beta1; type: binding; set-up: made in house; conditions: 2 μg purified monoclonal antibody
# Chain of rTGF-beta1 (P01137 279-390 limits assumed): as above
# Procedure: (§2) The specificity of anti-TGF-beta monoclonal antibodies was also evaluated by their ability to immunoprecipitate ^125I-rTGF-beta1 or porcine, platelet-derived ^125I-TGF-beta2 (R & D Systems, Minneapolis, Minn.; specific activity 103.4 μCi/μg). Two μg of purified monoclonal antibody was incubated with 5×10^4 CPM of ^125I-rTGF-beta1 or ^125I-TGF-beta2 for two hours at 22° C. The immunocomplexes were pelleted with protein A-SEPHAROSE™ bead-formed agarose-based gel filtration matrix (Repligen, Cambridge, Mass.) coated with rabbit anti-mouse IgG (Boehringer Mannheim Biochemicals, Indianapolis, Ind.) and subsequently washed 3× with PBST. The complexes were dissociated from the protein A-SEPHAROSE™ bead-formed agarose-based gel filtration matrix with reducing sample buffer and electrophoresed into 12% SDS-polyacrylamide gel (SDS-PAGE) and exposed to autoradiography.
# [4] = test system: Fo5 tumor cell line; assay: Trastuzumab-resistant Her2+ breast cancer mouse model; type: in vivo; conditions: 25 mg/kg at day 0
# Procedure: (§3) Epithelial cells from trastuzumab-sensitive (F2-1282) and trastuzumab-resistant (Fo5) tumor cell lines were injected into mammary fat pads of immunocompetent mice.
# [5] = test system: F2-1282 tumor cell line; assay: Trastuzumab-sensitive Her2+ breast cancer mouse model; type: in vivo; conditions: 25 mg/kg at day 0
# Procedure: as §3
# [6] = test system: 4T1 tumor cells; assay: 4T1 mouse mammary carcinoma model; type: in vivo
# Procedure: In a first set of experiments, 4T1 cells were derived from a single spontaneously arising mammary tumor from a BALB/cfC3H mouse. Primary 4T1 tumor cells were injected into mammary fat pads of immunocompetent BALB/c mice One week after injection, palpable primary tumors were observed. The tumor spontaneously metastasized into the lung (about two week after injection), liver and spleen (about three weeks after injection) and bone (between about 4 and 5 weeks after injection).
# The animals were treated with 15 mg/kg, 25 mg/kg and 43 mg/kg doses of an anti-TGF-β antibody (2G7). Tests were carried out at day 0, 1, 2, and 1 and 2 weeks after injection of cancer cells.
# [7] = biological target: T3, TGF-beta1 dimer (nonreduced) form (Homo sapiens, UniProt P01137); assay: Immunoblot analysis with rTGF-beta1; type: binding
# T3 construct: made in house
# T3 sequence (P01137 279-390 limits assumed): as above
# Procedure: One μg/lane of rTGF-beta1 was electrophoresed in 12% SDS-PAGE using non-reducing sample buffer to determine the reactivities of the various monoclonal antibodies with the dimer forms of rTGF-beta1. The peptides were transblotted onto nitrocellulose paper and probed with the appropriate monoclonal antibody conjugated with HRP. Bound antibody was visualized using the insoluble substrate 4-chloro-1-naphthol (Kirkegaard and Perry, Gathersburg, Md.). The reaction was stopped after 15 minutes by exhaustive washing with distilled water and the immunoblots were dried and photographed.
# [8] = test system: Her2+ epithelial cells; assay: Metastasis from Her2+ epithelial cells (non-surface lung tumors); type: in vivo, mouse
# Procedure: as §3
# Metastasis from such cells produces non-surface lung tumors (images not shown), the incidence and growth of which are not inhibited by anti-TGF-β antibody treatment.
# [9] = test system: B16-F10 and B16-BL6 metastatic melanoma sublines; assay: Mouse model of metastatic melanoma, secondary lung tumors; type: in vivo; conditions: approximately 30 mg/kg
# Procedure: as §1
# [10] = test system: PyMT tumors; assay: PyMT tumor mouse model of breast cancer; type: in vivo; conditions: relative to IgG control
# Procedure: This is a mouse model of breast cancer caused by expression of the polyoma middle T oncoprotein (PyMT) in the mammary epithelium. Primary tumor cells from PyMT tumors were injected (2 million or 5 million cells) into the mammary fat pad of a recipient mouse. The tumor developed was then passaged in a large number of further mice.
# [11] = test system: B16-F10; assay: Mouse model of metastatic melanoma, B16-F10 subline; type: in vivo; conditions: about 30 mg/kg
# Procedure: as §1
# [12] = biological target: T1, porcine, platelet-derived TGF-beta2; assay: Immunoprecipitation of 125I-TGF-beta2; type: binding; conditions: 2 μg purified monoclonal antibody
# Procedure: as §2
# [13] = early treatment (5 weeks after injection of cells)
# [14] = mice injected with tumor cells, relative to mice with tumors treated with control antibodies
# [15] = mice without tumor cells, relative to control mice without tumors
molecule,measurement,setting,value
B1,survival of mice with melanoma,[1],increased
same,survival of mice with melanoma,[1]; listed as anti-TGF-β antibody,increases
same,affinity of interaction between TGF-beta1 and the monoclonal antibody,[2],1.2e+08 L/mol
same,immunoprecipitation of 125I-rTGF-beta1 (autoradiograph),[3],immunoprecipitated equivalent amounts
same,size of primary tumor,[4],increased
same,systemic VEGF levels,[4],increased
same,size of primary tumor,[5],increased
same,systemic VEGF levels,[5],increased
same,results of 25-mg/kg dose versus 15-mg/kg dose,"[6]; 25 mg/kg vs 15 mg/kg, data not shown",better results than the 15-mg/kg dose
same,results of 25-mg/kg versus 43-mg/kg doses,[6]; 25 mg/kg vs 43 mg/kg,no significant difference
same,size of primary tumor,[6]; 43-mg/kg dose,transiently decreased
same,systemic levels of VEGF,[6]; 43-mg/kg dose,reduced
same,histology scores (grade and number of lobes affected) of secondary lung tumors,[6]; [13],decreased
same,volume of secondary lung tumors,[6]; [13],decreased
same,weight of secondary lung tumors,[6]; [13],decreased
same,breast tumor-induced bone destruction,[6]; early treatment (5 weeks after injection of tumor cells),inhibited certain parameters of breast tumor-induced bone destruction
same,BS/BV,[6]; [14],−6.6%
same,BV/TV,[6]; [14],+14.3%
same,Mineral density,[6]; [14],+6.3%
same,Trabecular number,[6]; [14],+6.5%**
same,Trabecular thickness,[6]; [14],+7.2%
same,BS/BV,[6]; [15],ns
same,BV/TV,[6]; [15],−4.8%
same,Mineral density,[6]; [15],ns
same,Trabecular number,[6]; [15],−2.8%*
same,Trabecular thickness,[6]; [15],ns
same,band strength in indirect immunoblot,[7]; nonreduced TGF-beta1 dimer,much stronger band than either 4A11 or 12H5
same,reactivity in indirect immunoblot with TGF-beta1 dimer,[7]; nonreduced form,reacted
same,incidence and growth of non-surface lung tumors,[8],not inhibited
same,incidence of metastatic lung tumor,[9],significantly decreased
same,number of metastatic lung tumor,[9],significantly decreased
same,incidence of metastatic lung tumor,[9]; listed as anti-TGF-β antibody,decreases
same,number of metastatic lung tumor,[9]; listed as anti-TGF-β antibody,decreases
same,primary tumor growth,[10],decreased
same,survival of mice with melanoma,[11],increased
same,survival of mice with melanoma,[11]; listed as anti-TGF-β antibody,increases
same,immunoprecipitation of 125I-TGF-beta2 (autoradiograph),[12],immunoprecipitated ^125I-TGF-beta2 to any measurable degree
